Reference: patent US20180179283A1 (ADICET BIO, published 2018)

B1: C106B9 TCR-like antibody (antibody, mouse IgG1, kappa, V domains shown)
VH: QVQLQQSGGEVMKPGASVKLSCKATGYTFTGYWIEWIKQRPGHGLEWIGEILPGSGGTNYNEKFKGKATFTAHTSSNTAYMQLSSLTTEDSAIYYCARDSNSFTYWGQGTLVTVSS
VL: QIVLTQSPAIMSASPGEKVTITCSVSSSVDYIHWFQQKPGTSPKFWIYSTSILASGVPARFSGSGSGTSYSLTISRMEAEDAATYYCQQRSSYPPTFGSGTKLEIKR
notes: also called MAGE-A4 C106B9
B2: 905-2-D7 TCR-like antibody (antibody, mouse IgG1, kappa, V domains shown)
VH: QVQLKESGPGLVAPSQSLSITCTVSGFSLTSYGVHWVRQPPGKGLEWLGVIWAGGTTNYNSALMSRLSISRDNSKSQVFLEMNSLQTDDTAIYYCARDGHFHFDFWGQGTTLTVSS
VL: DIQMTQSPASLSVSVGETVTITCRASDIIYSNLAWYQQKQGKSPQLLVYAATNLAAGVPSRFSGSGSGTQYSLKINSLQSEDFGTYYCQHFWGSSISFGSGTKLEIKR
notes: also called Tyr D7
B3: 906-11-D11 TCR-like antibody (antibody, mouse IgG1, kappa, V domains shown)
VH: not shown
VL: DIQMTQSPSSLSASLGGKVTITCKASQDIHNYIAWYQHKPVKGPRLLIHYTSTLQPGTPSRFSGSGSGRDYSFSISNLEPEDIATYYCLQYDNLWTFGGGTKLEIKR
notes: also called Tyr D11

What was measured:
[1] = target: HLA-A2/MAGE-A4-A7 peptide on T2 cells (human); assay: FACS (MFI) vs native peptide, Ala-mutant peptide on T2 cells
[2] = target: HLA-A2/MAGE-A4-A5 peptide on T2 cells (human); assay: as above
[3] = target: HLA-A2/MAGE-A4-A6 peptide on T2 cells (human); assay: as above
[4] = target: HLA-A2/MAGE-A4-A2 peptide on T2 cells (human); assay: as above
[5] = target: HLA-A2/MAGE-A4-A4 peptide on T2 cells (human); assay: as above
[6] = target: HLA-A2/MART1(26) control peptide on T2 cells (human); assay: FACS, T2 + MART1 peptide
[7] = target: T1, HLA-A2/P68 peptide on T2 cells; assay: FACS, T2 + P68 peptide
T1 construct: also called p68-DDX5

Row | Binder | % decrease in binding [1] [%] | % decrease in binding [2] [%] | % decrease in binding [3] [%] | % decrease in binding [4] [%] | % decrease in binding [5] [%] | binding result [6] | binding result [7]
1 | B1 | 90 | 90 | 90 | 33 | 90 |  | 
2 | B2 |  |  |  |  |  | no binding | no binding
3 | B3 |  |  |  |  |  | no binding | no binding
